Here are results for three variants from publication PMC7979749, “Structural basis of the dynamic human CEACAM1 monomer-dimer equilibrium” (Communications Biology, 2021).

B1: human CEACAM1 IgV domain, wildtype [human] / itself (parent)
chain: AQLTTESMPFNVAEGKEVLLLVHNLPQQLFGYSWYKGERVDGNRQIVGYAIGTQQATPGPANSGRETIYPNASLLIQNVTQNDTGFYTLQVIKSDLVNEEATGQFHVY

In this assay the parent is B1. Description: SEC-MALS. To be noted: with itself; 100 μM protein; read off a plot. Background: SEC sorts molecules by how far they enter the pores of the column.
Regarding chain 1 E100A, the screen value amounted to 15000 Daltons.
The figure for chain 1 I92A is 15000 Daltons.
On to chain 1 V40A, for which the screen value worked out at 19000 Daltons.
